Target: C-peptide-mCherry generated from RINS1 (human)
Assay: western blot of cell lysate (band size); lysates of MIN6 cells expressing RINS1 (lysis buffer 10 mM Tris/Cl pH 7.5, 150 mM NaCl, 0.5 mM EDTA, 0.5% NP-40), NuPAGE 4-12% Bis-Tris gel, anti-mCherry antibody

“C-peptide-mCherry generated from RINS1 (domain or fragment)” was tested, and the stoichiometry N was 2.
